From article PMC10625565
Changes are numbered by the printed parent chain. In names and notes the source's numbering stands. Blank lines part the entries; values can stand above or below the binder they belong to.

Biological target: GST-PpROP4CA (G15V)
Experiment: pull-down (MBP pull-down, Coomassie-stained SDS-PAGE, band quantification)
Conditions: chain shown with the change; three replicates; parent: est. 0.31; read off a plot

GST-PpROP4CA (G15V), sequence (chain, as listed by the source G15V): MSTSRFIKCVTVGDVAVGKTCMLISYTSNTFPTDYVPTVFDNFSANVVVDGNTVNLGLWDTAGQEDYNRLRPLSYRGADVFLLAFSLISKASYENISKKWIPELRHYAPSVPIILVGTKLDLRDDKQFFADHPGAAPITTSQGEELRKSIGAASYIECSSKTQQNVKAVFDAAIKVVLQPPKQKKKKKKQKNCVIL

- other: Protein ratio: 0.25
B1: MBP-PpRopGAP1 (wild type), A0A2K1KNT6 R239L (protein)
chain: MTQVLPTQIHLGSFTPDQSESEDYVNALHYVSDTDTDGYSGNHASPMILGDATISIRELCKEPEARKSGLSHSSSFSSITRGRWGEIGARSRNGSLNRRHSSFRSGSFNRSNNDQERERSAQLSLVALLLATVRRSVLTMCQDVEEGDESSLEIGWPTDVQHVAHVTFDRYNGFLGLPQEFEVEVPGRVPSASQSVFGVSAESMQCSYDHNGNSVPTILLLMQERLYHQGGLKAEGIFLINAENSHHEHVRDQLNKGIVPMDIDSYCLAGLIKAWFRELPQGVLDVLTPEQVLECHTEEESVALVKLLPPTQAALLDWAVNLMADVVQDEVVNKMNARNIAMVFAPNMTQMADPLTALMHAVQVMNLLKTLILRTLKDREEAILEQAQGLTRAEASEGDEPDSECNNVVLTSQERQNSLREEEASKVDCDEYSQRILIPVKRNTKVNSISKSGNLVNTIDHNNQRVEAW

- other: Protein ratio: 0.1
B2: MBP-PpRopGAP1 (wild type), A0A2K1KNT6 H165A (protein)
chain: B1 chain with H165A, L239R
